Experimental findings from patent publication US20190284289A1 (Eli Lilly, published 2019) are described below.

Assay [1] deals with T1, human RANKL (human, UniProt O14788 158-317, limits assumed).
T1 sequence: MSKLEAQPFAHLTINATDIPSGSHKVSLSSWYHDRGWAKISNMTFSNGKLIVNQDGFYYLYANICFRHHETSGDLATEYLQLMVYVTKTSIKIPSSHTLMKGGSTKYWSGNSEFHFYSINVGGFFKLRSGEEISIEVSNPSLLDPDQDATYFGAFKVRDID
In words: cell-based or functional assay.

The target of assay [2] is T2, rat RANKL (rat, UniProt Q9ESE2 141-318, limits assumed).
T2 construct: Construct not described
T2 sequence (looked up): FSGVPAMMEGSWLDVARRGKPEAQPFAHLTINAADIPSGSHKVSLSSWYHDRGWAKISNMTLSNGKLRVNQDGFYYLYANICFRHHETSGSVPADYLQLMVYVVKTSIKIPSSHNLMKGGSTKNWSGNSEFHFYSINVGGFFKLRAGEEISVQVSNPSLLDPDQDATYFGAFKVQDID
In words: SPR (BIAcore 2000), antibody captured on Protein A, RANKL as analyte, 25 C; rat RANKL.

Assay [3] deals with T3, mouse RANKL (mouse, UniProt O35235 158-316, limits assumed).
T3 construct: Construct not described; also called murine RANKL
T3 sequence (looked up): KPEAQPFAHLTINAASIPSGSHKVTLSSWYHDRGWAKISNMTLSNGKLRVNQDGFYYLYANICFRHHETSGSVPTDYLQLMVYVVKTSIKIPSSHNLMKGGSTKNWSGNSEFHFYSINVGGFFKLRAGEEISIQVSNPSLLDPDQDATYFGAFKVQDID
As to the kind of experiment: SPR (BIAcore 2000), antibody captured on Protein A, RANKL as analyte, 25 C; mouse RANKL.

The target in assay [4] is T1, human RANKL. In words: SPR (BIAcore 2000), antibody captured on Protein A, RANKL as analyte, 25 C; human RANKL. The method, then:
The BIAcore® 2000 instrument is used to measure binding affinity. All measurements are performed at 25° C. 2 ug/mL of exemplified antibody of Example 1 is dissolved in HBS-EP buffer (150 mM sodium chloride, 3 mM EDTA, 0.005% (w/v) surfactant P-20, and 10 mM HEPES, pH7.4). Protein A is immobilized on flow cells 1 to 4 of a CM4 sensor chip at a level of 500 response units (Rus) using an amine coupling kit.
Binding is evaluated using multiple analytical cycles. Each cycle is performed at a flow rate of 20 uL/minute. About 10 uL of the exemplified antibody of Example 1, at a concentration of 2 ug/mL, is injected, aiming to capture about 100-200Rus; 250 uL of human RANKL (starting at 5 nM and using two-fold serial dilutions for each cycle) is injected, ten minutes is given for dissociation, and 10 uL of 10 mM glycine hydrochloride, pH 1.5 is used for regeneration. Association and dissociation rates for each cycle are evaluated using a “1:1 with mass transfer” binding model in the BIAevaluation software.
In general terms: SPR reads the build-up and loss of mass on a sensor chip optically.

B1: exemplified antibody of Example 1 (antibody, human IgG4 S228P, kappa, F234A L235A, V domains shown)
VH: QVQLVQSGAEVKKPGSSVKVSCKASGYAFTNYYIEWVRQAPGQGLEWMGVINPGWGDTNYNEKFKGRVTITADKSTSTAYMELSSLRSEDTAVYYCARRDTAHGYYALDPWGQGTTVTVSS
VL: DIQMTQSPSSLSASVGDRVTITCKASQNVGTNVAWYQQKPGKAPKLLIYSASYRYSGVPSRFSGSGSGTDFTLTISSLQPEDFATYYCQQYWDYPLTFGGGTKVEIKR
notes: also called the antibody; anti-RANKL antibody
As usually defined, the Kd is the constant that tells how readily two partners part at equilibrium. For the molecule B1, the “IC50, neutralization of human RANKL induced NF-kB driven luciferase luminescence in HEK293 cells expressing human RANK” value in assay [1] worked out at 0.069 nM. Moreover, the values for the Kd in assay [2], in assay [3] and in assay [4] were 0.0344 nM, 0.00664 nM and 0.00282 nM, respectively.
